For the test, the target named is 鸡传染性法氏囊病病毒 B87株. The test can be described thus: cell-based or functional assay.

B1: IBDV-VP2 scFv30抗体 (scFv)
scFv: AVTLDESGGGLQTPGGALSLVCKGSGFDFSSHGMAWVRQAPGKGLEWVAGIGSSSSGTAYGSAVQGRATISRDNGQSTVRLQLNNLRAEDTGTYYCAKSVGDCAYGYSCAAGGIDAWGHGTEVIVSSASGGGGSGGGGSGGGGSVLTQPSSVSANPGETVKITCSGGGGSYGWFQQKSPGSAPVTVIYNNNNRPSDIPSRFSGSKSGSTATLTITGVQAEDEAVYYCGGSEDSSAGYVGIFGAGTTLTVLG
Turning to B1, the 阻断或抑制CPE的最小蛋白浓度 was determined as 4.69 µg/mL.

The values above are taken from CN108484759A.
